Measured values as given in patent publication US20040091468, “Novel transcriptional mediators of blood vessel development and endothelial differentiation” (published 2004).

Legend:
[1] = biological target: T1, cELF-1 (Gallus gallus); assay: competition; 5 or 50 ng cold competitor vs Tie1 P2 probe; competes as well as wild type; conditions: tags: none (TNT reticulocyte lysate)
T1 chain: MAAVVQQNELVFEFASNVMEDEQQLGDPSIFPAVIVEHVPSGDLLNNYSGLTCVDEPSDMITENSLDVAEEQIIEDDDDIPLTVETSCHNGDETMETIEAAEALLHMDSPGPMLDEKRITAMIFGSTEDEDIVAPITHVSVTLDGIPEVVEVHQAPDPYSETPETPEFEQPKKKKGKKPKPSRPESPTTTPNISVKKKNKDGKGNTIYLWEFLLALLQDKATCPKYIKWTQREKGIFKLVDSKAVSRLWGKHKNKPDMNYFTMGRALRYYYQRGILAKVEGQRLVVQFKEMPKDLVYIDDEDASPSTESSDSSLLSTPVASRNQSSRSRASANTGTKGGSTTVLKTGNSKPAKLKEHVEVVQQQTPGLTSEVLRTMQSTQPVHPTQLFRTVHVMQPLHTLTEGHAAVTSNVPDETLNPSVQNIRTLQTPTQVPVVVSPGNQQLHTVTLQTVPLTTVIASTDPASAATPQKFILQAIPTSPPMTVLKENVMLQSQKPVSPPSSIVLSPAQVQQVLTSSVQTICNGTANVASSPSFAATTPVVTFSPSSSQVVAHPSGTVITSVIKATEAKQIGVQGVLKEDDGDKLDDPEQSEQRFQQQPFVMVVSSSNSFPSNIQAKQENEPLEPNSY
Method: (§1) The ability of cELF-1 to bind to conserved Ets sites in the Tie1 promoter was examined. There are two Ets site doublets, P1 and P2 that are highly conserved in this promoter. The ability of cELF-1 to bind to these Ets sites was tested. As is shown in FIG. 8C, cELF-1 binds well to both of these Ets sites. […] When both of the Ets site were mutated (Mut 1,2) the oligonucleotides were unable to compete for binding. When the first Ets site was mutated, Mut 1, it competed only weakly with binding of cELF-1 to the Tie1 P2 probe.
(§2) Briefly, 20-μL samples containing 2 μL of in vitro-translated products or cell extracts were incubated with a solution containing ³²P-labeleddouble-stranded probes (30 000 cpm). Samples were incubated in the presence or absence of increasing amounts of cold competitor (5 or 50 ng) for 15 to 20 minutes at room temperature and run on a 4% polyacrylamide gel (acrylamide-bisacrylamide, 29:1) containing a buffer of 0.25×TBE (22.5 mmol/L Tris borate and 0.5 mmol/L EDTA).

[2] = biological target: T1, cELF-1; assay: EMSA; binds well; wild type cold oligo competes; conditions: tags: none (TNT reticulocyte lysate); label: 32P
Method: as §1, §2

[3] = biological target: T1, cELF-1; assay: EMSA; binds well; room temperature; conditions: tags: none (TNT reticulocyte lysate); label: 32P
Method: as §1, §2

[4] = biological target: T1, cELF-1; assay: EMSA; anti-ELF-1 antibody interferes and supershifts; room temperature; conditions: tags: none (TNT reticulocyte lysate); label: 32P
Method: The ability of in vitro translated human ELF-1 and cELF-1 to bind to the same Tie2 Ets sites was also examined. As is shown in FIG. 8A, both human and chicken ELF-1 form similar DNA-protein complexes with the Tie2 Ets sites (lane 2 and 3). The ability of an ELF-1 specific antibody to interfere with the formation of these complexes was also tested. This antibody was able to interfere with complex formation of both human and chicken ELF-1. […] Because several Ets factors may potentially bind to the Tie2 Ets site in vivo in the developing chicken we performed gel shift assays with the Tie2 Ets probe and cell extracts from the chicken CAM. As is shown in FIG. 8B, lane 3, a similar size complex is formed compared to the in vitro translated cELF-1.
as §2

[5] = biological target: T1, cELF-1; assay: competition; 5 or 50 ng cold competitor vs Tie1 P2 probe; unable to compete; conditions: tags: none (TNT reticulocyte lysate)
Method: as §1, §2

B1: Tie1 P2 Mut2 (dsDNA)
DNA 1: CCATCATTTCCTCTTAATCCCCAG
DNA 2: CTGGGGATTAAGAGGAAATGATGG
- binding result [1]: binds

B2: Tie1 P2 (dsDNA)
DNA 1: CCATCATTTCCTCTTCCTCCCCAG
DNA 2: CTGGGGAGGAAGAGGAAATGATGG
- binding result [2]: binds

B3: Tie1 P1 (dsDNA)
DNA 1: ACTGGCTTCCTCCCTTTCCTGTCTC
DNA 2: GAGACAGGAAAGGGAGGAAGCCAGT
- binding result [3]: binds

B4: Tie2 promoter Ets oligonucleotide (dsDNA)
DNA 1: TGCAAAGGAAACAGGAAAAAGGAACTTAAC
DNA 2: GTTAAGTTCCTTTTTCCTGTTTCCTTTGCA
- binding result [4]: binds

B5: Tie1 P2 Mut1,2 (dsDNA)
DNA 1: CCATCATTTAATCTTAATCCCCAG
DNA 2: CTGGGGATTAAGATTAAATGATGG
- binding result [5]: no binding
